Values of other authors in publication PMC3749136.

Target: EGF-R pY1092 peptide pY1092 peptide (Homo sapiens) (UniProt P00533)
Details: cited from earlier work

Sequence of SOCS4 SH2 (Q8WXH5 283-384): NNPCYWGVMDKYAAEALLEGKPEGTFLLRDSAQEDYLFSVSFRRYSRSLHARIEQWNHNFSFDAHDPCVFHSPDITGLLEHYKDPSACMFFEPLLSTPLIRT

Question: For SOCS4 SH2 (from UniProt Q8WXH5), which Kd is on record?
Answer: Its Kd is 500 nM.
